Tested on: Saccharomyces cerevisiae
Assay: transcriptional activation domain activity (GFP:mCherry ratio, weighted mean of sorted bins, harmonized to initial dataset scale) (arbitrary fluorescence ratio units); higher = stronger transcriptional activation
Conditions: beta-estradiol 1 µM; induction time 4 h
How it was run: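 The activation activity of each tile is the read-weighted mean of bin median fluorescence, averaged across its barcodes and mapped linearly onto the scale of the initial dataset. Tiles were fused to an estradiol-inducible synthetic transcription factor, barcoded, and integrated at URA3 in yeast diploids carrying a GFP reporter. Induction used 1 uM beta-estradiol in SC for 4 hours at 30 °C, after which cells were sorted into 8 GFP:mCherry bins, and any tile with fewer than 50 reads was dropped.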

Sequence	transcriptional activation domain activity
AFVLFLIYLTFFCWLCFATSASWVWSEILSDGQYNESFMPVNYVLLAVLSGII	53800
KSKKTEAEAEEEEVTEEVKPEKKEKKEKKEKKEKKRKRDAEEDAAETKPAEKA	17600
QQQQQQQQQQQQQQQQQSLDTLLHHYQSLLSKSDNAIAFDDNVSNSADHNGSN	22600
PPPPPPPGAMGGLPPPPPPPPPPPGGPGGGPPPPPPPPPGGPGGPPPPPPPPG	35100
EPAEEDSKPEEPAAAAEPEAEVKEEPAEEPAAPAEPKAEAEPEKADETPAAEA	24000
AAAAAAAAAAAAAAAAAAAAAAAAAAAQQRRRQQQQQRRGSSAAARRQQQQQR	22600
MLCDATSGLWILLCFFFFCVVLFVLIVSVFSTLPMWMSYSFFFLFVGFDLLLS	35600
TLPQEDTQSTEDTKVEKKLVIASLLSRMLIPTIIMAPLLALTAKFVPVSILDD	52400
MAPFSPFVYFFLFLVHNSWLFCFLLVCFPFFSILVFLSFCPFLSPFTSRFSFL	56600
KVDNGRKVDNGGKVDGRKVDNGGKVDDGRSVNDRGRADKGGGVVKGGRLVEGG	24900
SYITYYQSRQFVMIPWYFYFIIITCVLTIIFVMAVCFLFYIHLLLPILVMLWS	35400
SSSSEPIVLPVPVPVKRGRGRPKGAKNKPKLCEEKKQEEEEERERERERERGT	12200
YLHAVLCELQSSFNRKATTRSKLTHTPNLPEYTFPFAWLTLPFAAARRCTPAG	66600
LCAPIEVFRNICLPFVRLLHPLFFLSLLVFVEIIFPLFIPLTLLHCFLVLFGV	55100
GSETTQEQRNIEGTDHGSGGGGGGSGEGGGGNEGGGGGGGGGSGGGGKGGGGE	30000
SFWNTAFHPVYFNTTDLVLSFPFLFLPSFSSFFSFLFCIVIFTIVQRLYVFIS	97000
MHPFSPHCLSLSLLLKFSQLFNISFFLLVMHFLWLDILGFFFILFPNHFPMFG	43800
ERGKRKEGRKEEEGKEGEKGKEEKREEKRRGKRGEEKREGKKKEERRRGRRRR	20800
KADDEKPKKAARGAKAKKEEDEDEEADEEQEEPKKPARKPRAKAEPKKAPAKS	23100
AKNLKYLFKVVLSMKGVPSFESSCKIKLLGIHFYYDQVYVYSLSMPMWDVFVF	73300
KQYCVRPNSGRIESGKEVEVQVLLQAMKNDPPADYKCRDKFLVQSVAITADRE	53400

Sequence	transcriptional activation domain activity
MMAEGERPLATMCSVLSVCYVCVRLVLSNLIWIVLCSSPRPLPMALLSLLAHR	32900
RGEILESKFGRSSKPSPRILIVSNSKFYIVAQALVNHQVQISVERSVPLGAIK	51900
MEGSEKAARVAPPAQRVRTGCLTCRKRHLKCDEAKPTCENCRKGRRECVRGLR	6710
VIIVLIFAVACHLAFGTSVVVFIWRTALLRDISKLSRTNIMPMCISQVVADVL	42900
KAGGTGAKQEKEPQGEGRETEGNQAKANRRTKGGTARGEGAAGGRRRRKGEES	35000
SKADTEDGEEAVDDTATEEKPEAKAEEVTEETTTEKEAEAAAESAAAEKLRRD	25700
VEPAPENWRELTQIPAFAGIRSASFVRHTVALVESLLLRAAFVRAVFAELRAC	53700
MQIVLYLHCKVCFIYFHCLLLDFRSFLHIQRPQEPWIAYIFPTTACVSPQTRR	55300
GVDGDGAADADADEDDEEGEEDEDDEGGGAGRKRKKARMEAAPKAKPKPAPAK	27700
MLQVVVQCFGISLLYFRSGVYLCIFTVHGLGYLFCVFCVFGFHSVWVGLCFFV	56600
RKADPPKEKKKPAVPAAEGAAAPAKKEKKDKKDKEAAAVSVEATEVKEEAAPA	13900
RFLFQWDLELALSLCLSHTLGIISLPYKSIFISILWLIQSSWQLLFFLFWQPL	70400
RPFLLNCKDINQFTNLIWERIRITNGTKMYWVWQHLRCVVMFFTLQPNQRILL	83700
PPPKGSDAALAAPPPPPGASGAPPPPPPKGSEAAAAAPPPPPPADASGAPPPP	26100
PILLILLLLHVGFFGGYYFVICLGGLFDVCLSQLLVYKWQSFGFYWRIVVFLW	78100
DDLQQLLEDLGNIDHSDEKLWKEITDQAMWLGNTMDPTAAAGSEIDFTDYLGP	144000
IIEEQSGEDDDLPGHKKQRKESLAELLASEPADGTSPRRKSGQIKRTVPAVVL	< 6570
ARVLGKKNTLEGLASTIRGTVRFVRETCYAVIYCMTRLDMQFYGFLELPGPLA	39600
AAAASSTPCLRRRPAPAPATARSSAARPAGCSCGGRSRRCGGRRTPSPSRRGP	20300
FCMLNHWYARSWGTYLWLGLLLTDLDVTYKYKKWLYAHPGTYYPLLTFAWLCV	63000
MGLGVLYHLSLLFPSFSFFYLSSSFPPFFFFFLLLWLFPISCLGFLVLFWTGS	61300

Sequence	transcriptional activation domain activity
ADSKTRNKRDGSNSTTSRSRSSRSRGEAVDDDGSSSSKRSSRSSRTDEGGAAR	41400
AKDGELQTKKPRQRKPKAPAATGDADILEVKPKRTRTTRPKVSSYFAEPAAPL	< 6570
MGSFLPFLFFSFCYTFVCYFFSIIALVVFVYFTLAVEFFFFFFGCLRCLLLWL	57600
LARFACLTCDHNWLEDLIFGATDAIEEAFFANDITCLVFWLYNTTLWLHLMQC	51400
MQFDIGPFVFFGLGWLSAIYLLLFPFFFFFFRLFPSLEFWLDLALIFMFRVLH	46300
RCSIIYAGCHCPMWMVLFVPGCLFGLSVALGTLWLVQASDMLFPHTNYILIYI	46700
ENNVPLLERFREFPWLLSDLIFPFMMEYMLVWYLIWETILNILAELTYFADRS	27300
ESEDEGRDTTHDSDNEGDGHDANHGSENEGEGHDTTHDSKIEGAGRDAIRGSH	8090
LQRPVRIMVDTKHSTVKTLVQEFVRIRPQRDHLRLAMLVLLCRDYFHKRVIVF	49000
HLIVSLSLSIFLFYLFWCLSIHVCVCLVSIYYILLLASLCFFLFFFNYLPILL	50300
VAKCFEKVKALIGTFDLDVGRVLDVTLDVFASLLVKHHKFFIKLLRCSYWWPV	83300
MGLKGLLRSTIYVSSLVWLGWVVNLGQFLLFPFYSVTLKLSYNVNACIISVLV	68500
VGETVVTFCYEDGIMVMAMVGSGFMGYYLYTLQVKHSFSGPGPWFLGMALICL	68700
MWMSLLHFHTFTIFLTFFFFFFFFFCLPPFVSLLTLFLVEIFLSWREGFLPHP	39400
MLSLIWCFKAWLLTIISLPSYIILRTPLPFLFSSSPLFRSSPFHFFFTSLSTH	48100
MGYYVVLLTELLISCLCSPSLLYSPFLLICDSFPCSRRVFKLAFILFYILIVT	43400
QRIIIGSKLILLTRSLLICLLWSLKMAVLDLLAKLMLNMPFERKLIYTLWAIL	41600
AYNALIFALVVCICTFGCCAYIFVSSLFIHKLYNKFIILAAHIWMIIFWLVDL	62400
FLSCLLAMEIIQHYMYVVAIKDRKAWIGDSPFELSMIGLWNLVIVWLKLLLPW	59900
IVVVVSPGVLHVDVGITILYGEVIVGLRTGTKDVLLRWKIVQVERRWLGYTPE	30500
MFCLRSWIPILFFLSVSNASPIYLILFVVTTYLLNRPCVYCSLLLGVLVLALF	38500

Sequence	transcriptional activation domain activity
VDAKFVIVANYGTACVVMGFLAVAMYCLLITVGDDIYFVGMLFSFTIIGTLMI	29300
VVGGQQKFGTKMVVESDKKCRLILLPRFAETGILVLVNMRTLAVKCVKFGTRG	19300
FTELEKHSNVSQFNTLDVSEGNQVINESASTNTSSALNCQSYTNNQDIMDILF	48800
PQQNIAPPFLNTNSSATDSNPNTNLEDSLFFDHDLLSSSITNTNNGQGSNNGR	24800
NAVNKSRGMVKGSGRKLHQQKGTGRARMRDAQNPIRRGGGRAFAKTTARNWLV	29500
QQAHHNVSGPTSKTLLPFLPLHKLMLSNILSPNVRLLFPPLLPLQLSWILWAL	61800
KLKSLVAIVWILDFVHLILICQAIYHYLITNWGTTQRFCSPPRFSICTLCLSL	55200
GAEYICQYKGGLIGKHFKSFAQIMPYLIYDLVPPSVLDAWTTIGSPVVLLWHT	46000
EGGRQRERAGGAGGEDSKGEGRREERREEGKGGKGSAEERESREGSARGGEAG	10200
IEDSRRVDRGDEDKGREDHTRHRRRGSTDTGRRDERSHRDRRRSRSRSPASRR	21900
NQLHRPPPEILKLFEASVRFEMQIRRLIAKDWLCVATWWLLKARATLANCNRH	69100
ATAARRPRADEGEEGLDEATDAAAAPAAAAENGEAAAAKPKKNRKSKAAKAAA	16300
MHRATNYYFSFSALLYLVFIFLRCSLALGLFFCFMFLSFEFFCFLMVLCLFCI	33200
GNTGAGGEALVRSVGGSSAVEYPVCVEMDVVSGADGGEKLVWRTACDSRFVDG	44800
TDILKFWHLVVHNGMLERAKGLVSITLTSDTRFVFKAISWRLVMLPRLKYLAL	76100
EWFVMFCMMLLLLFWFFPISALASLLSYEEIKKIMPWLGRLIDANENIRAIVQ	62900
PLVVTALCVAPHEFFMKNWVSCFEVGLVKLKEKPYRMIVMNGMMRLIWTYLYR	52800
DVGNSVWHVDCCSPYVNGGSGWGFFNAILGWTNSATYGSVISYNLYWLFVIAV	51100
EASSDGEGAASASDASGDRELVKAKAKKKKKAAGEEGDKPKKKKKSSPKKAKE	27100
PLVVFPNFMAVVIIFGFFFMYFEDFNKEVFLHNKHHQIWVYLHFPLHLCQVAF	78400

From the supplement of paper PMC12636428
